# Measured values as given in patent US20160075790A1 (Bristol-Myers Squibb, published 2016).
# Positions count from the first letter of the chain named. Values joined by “and” are separate entries in the source; they are usually repeats but may differ in a detail not shown here. Equal values may be shown once.
# T1: human isoleucine zipper-CD40L (IZ-hCD40L) (human, UniProt P29965 113-261)
# T1 sequence: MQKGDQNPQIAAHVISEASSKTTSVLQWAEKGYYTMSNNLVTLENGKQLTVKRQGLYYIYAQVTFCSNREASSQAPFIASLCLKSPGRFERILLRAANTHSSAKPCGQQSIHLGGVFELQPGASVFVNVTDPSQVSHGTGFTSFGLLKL
# B1: BMS2h-703 (other)
# VH: EVQLLESGGGLVQPGGSLRLSCAASGFTFYNYDMSWVRQAPGKGLEWVSGIDSMGLVTYYADSVKGRFTISRDNSKNTLYLQMNSLRAEDTAVYYCAKGSNASDWVVFDYWGQGTLVTVSS
# B2: BMS2h-706 (other)
# VH: EVQLLESGGGLVQPGGSLRLSCAASGFTFGSYKMLWVRQAPGKGLEWVSSITNSGTETYYADSVKGRFTISRDNSKNTLYLQMNSLRAEDTAVYYCAKSMYPDLEIVHFDYWGQGTLVTVSS
# B3: BMS2h-712 (other)
# VH: EVQLLESGGGLVQPGGSLRLSCAASGFTFPEYEMKWVRQAPGKGLEWVSTITPSGGHTYYADSVKGRFTISRDNSKNTLYLQMNSLRAEDAAVYYCAIPLSSFDYWGRGTLVTVSS
# B4: BMS2h-744 (other)
# VH: EVQLLESGGGLVQPGGSLRLSCAASGFTFKEHDMFWVRQAPGKGLEWVSGIGAEGVWTYYADSVKGRFTISRDNSKNTLYLQMNSLRAEDTAVYYCAEPTMSNGSQSRFDYWGQGTLVTVSS
# B5: BMS2h-719 (other)
# VH: EVQLLESGGGLVQPGGSLRLSCAASGFTFKRYEMTWVRQAPGKGLEWVSSISSDGSFTYYADSVKGRFTISRDNSKNTLYLQMNSLRAEDTAVYYCAEPFTEFDYWGQGTLVTVSS
# B6: BMS2h-719-213 (other)
# VH: B5 VH with T35M, E98D, F103M, Q108H
# B7: BMS2h-719-218 (other)
# VH: B5 VH with T35M, D62E, Q108H
# B8: BMS2h-719-203 (other)
# VH: B5 VH with K30N, R31S, T35M, Q108H
# B9: BMS2h-719-214 (other)
# VH: B5 VH with T35M, E98D, Q108H
# B10: BMS2h-719-215 (other)
# VH: B5 VH with T35M, F103L, Q108H
# B11: BMS2h-572-12 (other)
# VH: EVQLLESGGGLVQPGGSLRLSCAASGFTFNWQLMGWARQAPGKGLEWVSGIEGPGDVTYYADSVKGRFTISRDNSKNTLYLQMNSLRAEDTAVYYCAKVGKESNSDYRGQGTLVTVSS
# B12: BMS2h-572-22 (other)
# VH: B11 VH with L5F, L11S, A37V
# B13: BMS2h-757 (other)
# VH: EVQLLESGGGLVQPGGSLRLSCAASGFTFKEYNMAWVRQAPGKGLEWVSSINFAGRTTYYADSVKGRFTISRDNSKNTLYLQMNSLRAEDTAVYYCAKLSLPLDIFSFDYWGQGTLVTVSS
# B14: BMS2h-710 (other)
# VH: EVQLLESGGGLVQPGGSLRLSCAASGFTFNTYSMSWVRQAPGKGLEWVSWIDADGWVTYYADSVKGRFTISRDNSKNTLYLQMNSLRAEDTAVYYCAQTGHTFDYWGQGTLVTVSS
# B15: BMS2h-725 (other)
# VH: EVQLLESGGGLVQPGGSLRLSCAASGFTFSAYTMGWVRQAPGKGLEWVSLIGDRGSWTYYADSVKGRFTISRDNSKNTLYLQMNSLRAEDTAVYYCAEPSDPTKFDYWGQGTLVTVSS
# B16: BMS2h-725-19 (other)
# VH: B15 VH with E98D, D106V
# B17: BMS2h-725-9 (other)
# VH: B15 VH with K43M
# B18: BMS2h-725-2 (other)
# VH: B15 VH with D106V, L113P
# B19: BMS2h-723 (other)
# VH: EVQLLESGGGLVQPGGSLRLSCAASGFTFDLYDMMWVRQAPGKGLEWVSSISDLGTLTYYADSVKGRFTISRDNSKNTLYLQMNSLRAEDTAVYYCAKNGFRVTSNDRRFDYWGQGTLVTVSS
# B20: BMS2h-747 (other)
# VH: EVQLLESGGGLVQPGGSLRLSCAASGFTFDDGTMGWARQAPGKGLEWVSLILPSGSRTYYADSVKGRFTISRDNSKNTLYLQMNSLRAEDTAVYYCAKHSLTNRPFDYWGQGTLVTVSS
# B21: BMS2h-717 (other)
# VH: EVQLLESGGGLVQPGGSLRLSCAASGFTFSSYEMAWVRQAPGKGLEWVSRIEPDGSNTYYADSVKGRFTISRDNSKNTLYLQMNSLRAEDTAVYYCAKGPDNFTMFDYWGQGTLVTVSS
# B22: BMS2h-745 (other)
# VH: EVQLLESGGGLVQPGGSLRLSCAASGFTFDNTEMAWVRQAPGKGLEWVSGIIEDGNRTYYADSVKGRFTISRDNSKNTLYLQMNSLRAEDTAVYYCAKIRNLHWDVGRQFDYWGQGTLVTVSS
# B23: BMS2h-746 (other)
# VH: B22 VH with D30G, N31S, T32A, A35G, I52S, E53R, D54P, N56Q, R57V
# B24: BMS2h-745-1 (other)
# VH: B22 VH with I52T
# B25: BMS2h-745-9 (other)
# VH: B22 VH with L11S, I52T, D111V
# B26: BMS2h-745-13 (other)
# VH: B22 VH with V37I
# B27: BMS2h-745-14 (other)
# VH: B22 VH with V37I, I52T
# B28: BMS2h-745-2 (other)
# VH: B22 VH with I52S, T91S, D111V
# B29: BMS2h-731 (other)
# VL: DIQMTQSPPSLSASVGDRVTITCRASQLISSHLDWYQQKPGKAPKLLVYDASELQSGVPSRFSGSGSGTDFTLTISSLQPEDFATYYCQQHRSLPFTFGQGTKVEIKR
# B30: BMS2h-722 (other)
# VH: EVQLLESGGGLVQPGGSLRLSCAASGFTFTKYPMAWVRQAPGKGLEWVSGIDANGNRTYYADSVKGRFTISRDNSKNTLYLQMNSLRAEDTAVYYCAEGTWRRHFAIFDYWGQGTLVTVSS
# B31: BMS2h-758 (other)
# VH: EVQLLESGGGLVQPGGSLRLSCAASGFTFGDYGMNWVRQAPGKGLEWVSHISSNGRFTYYADSVKGRFTISRDNSKNTLYLQMNSLRAEDTAVYYCAETSGYFDYWGQGTLVTVSS
# B32: BMS2h-730 (other)
# VL: DIQMTQSPSSLSASVGDRVTITCRASQDIKDWLHWYQQKPGKAPKLLIYFASGLQSGVPSRFSGSGSGTDFTLTISSLQPEDSATYYCQQHYSTPYTSGQGTKVEIKR
# B33: BMS2h-752 (other)
# VH: EVQLLESGGGLVQPGGSLRLSCAASGFTFSDYAMAWVRQAPGKGLEWVSRIGVEGGDTYYADSVKGRFTISRDNSKNTLYLQMNSLRAEDTAVYYCAKLLRLYRLGFDYWGQGTLVTVSS
# B34: BMS2h-754 (other)
# VH: EVQLLESGGGLVQPGGSLRLSCAASGFTFSRYDMVWVRQAPGKGLEWVSRINSMGLATYYADSVKGRFTISRDNSKNTLYLQMNSLRAEDTAVYYCAKDYSVAPHGYPLGFDYWGQGTLVTVSS
# B35: BMS2h-726 (other)
# VH: EVQLLESGGGLVQPGGSLRLSCAASGFTFDNYKMYWVRQAPGKGLEWVSSISEIGNLTYYADSVKGRFTISRDNSKNTLYLQMNSLRAEDTAVYYCAIALTRFDYWGQGTLVTVSS
# B36: BMS2h-707 (other)
# VH: EVQLLESGGGLVQPGGSLRLSCAASGFTFETYRMSWVRQAPGKGLEWVSAIDQEGSATYYADSVKGRFTISRDNSKNTLYLQMNSLRAEDTAVYYCAKNSGTRPGLRFDYWGQGTLVTVSS
# B37: BMS2h-702 (other)
# VH: EVQLLESGGGLVQPGGSLRLSCAASGFTFAEYEMMWARQAPGKGLEWVSRIAGNGSRTYYADSVKGRFTISRDNSKNTLYLQMNSLRAEDTAVYYCAIMLSHFDYWGQGTLVTVSS
# Target: T1, human isoleucine zipper-CD40L …
# Assay: cell-based or functional assay
row,Binder,hIZCD40L-driven Human B Cell Proliferation EC50
1,B1,> 7 µM
2,B2,> 7 µM
3,B3,> 7 µM
4,B4,> 7 µM
5,B5,0.6 µM
6,B6,0.062 µM and 0.098 µM
7,B7,0.057 µM and 0.06 µM
8,B8,0.081 µM and 0.096 µM
9,B9,0.066 µM and 0.089 µM
10,B10,0.092 µM and 0.091 µM
11,B11,0.079 µM and 0.076 µM
12,B12,0.357 µM and 0.305 µM
13,B13,6.4 µM
14,B14,> 7 µM
15,B15,6.4 µM
16,B16,> 7 µM
17,B17,> 7 µM
18,B18,> 7 µM
19,B19,> 7 µM

row,Binder,hIZCD40L-driven Human B Cell Proliferation EC50
1,B20,> 7 µM
2,B21,> 7 µM
3,B22,6.4 µM and 3.5 µM and > 7 µM
4,B23,> 7 µM
5,B24,> 7 µM
6,B25,> 7 µM
7,B26,> 7 µM
8,B27,> 7 µM
9,B28,> 7 µM
10,B29,5.8 µM
11,B30,> 7 µM
12,B31,5.9 µM
13,B32,> 7 µM
14,B33,> 7 µM
15,B34,6.6 µM
16,B35,> 7 µM
17,B36,> 7 µM
18,B37,> 7 µM
